These results are taken from the RNAGym collection of RNA variant scans (doi:10.7554/elife.80360).

B1: HDV Ribozyme (parent)
chain: GGCCGGCAUGGUCCCAGCCUCCUCGCUGGCGCCGGCUGGGCAACAUUCCGAGGGGACCGUCCCCUCGGUAAUGGCGAAUGGGACCCA

The data set covers variants of B1. In words: self-cleavage, relative activity (ratio to wild type); higher = more cleavage; co-transcriptional.
Consider C14G, for which the self-cleavage came to 0.724. Take C61U C86G: the self-cleavage came to 0.847. To C14G C19G belongs 0.0449; to G11C A87C, 0.607; to G34U G35C, 0.154. To C22U G54C belongs 0.641. Regarding G35C A51U, the self-cleavage amounted to 0.396. Next, U9C U37C: 0.978. Turning to G28C A78C, the self-cleavage turned out to be 0.0852. To C7G C41G belongs 0.128.

C30A A77U: the self-cleavage amounted to 0.0354. Next, C15U C21U: 0.17; A8C C15U: 0.604; C19G G52C: 0.121. For G34U U60C, the self-cleavage was determined as 0.175.

Turning to G40A G67U, the self-cleavage is 0.919. Next, C33U: 0.847; A70G A83G: 0.692.

As for G1A A16U, the self-cleavage was 0. For the variant U46A C64G, the self-cleavage was 0.38. To C26U A83C belongs 0.95; to C48U U60A, 1. C7G C30U: the self-cleavage turned out to be 0.138. Turning to U9G C18G, the self-cleavage was determined as 0. Next, C3A A16C: 0.0875; C14G G76C: 0.731; G40U G59A: 0.812. Next, G29A C85U: 0.0978. To U47A C48G belongs 0.598.

G73U A77C: the self-cleavage was determined as 0.0898. To G17A C32A belongs 0.0852; to G53A C61A, 0.987; to C13U C57G, 0.587. Next, C62A G73C: 0.465; U69A G76C: 0.906; U9C A42C: 0.475. Next, C63A A77C: 0.268; A42C G67C: 0.17; C26G G38U: 0.435.

Turning to C63A C66A, the self-cleavage was determined as 0.302. Next, U12C G73A: 0.289; C24A C63G: 0.723. For G6C U46A, the self-cleavage is 0. Next, U69C U79C: 0.404; C15U G40U: 0.791. To G10A G55U belongs 0.698; to C26G U27C, 0.795; to U27G G76A, 0.98. For C36A G74C, the self-cleavage stood at 0.0997. In the case of G67A C85A, the self-cleavage came out at 0.844. As to C48A G80C, the self-cleavage came out at 0.169. As for C44A G67C, the self-cleavage was 0.712. Next, G39C U65A: 0.0462; C61A C85G: 0.988. In the case of G28A U46A, the self-cleavage worked out at 0.0326. To C4U G34C belongs 0.151.

For U23C U69C, the self-cleavage stood at 0.886. Turning to A8C G74U, the self-cleavage was found to be 0.475. Take C36U C57A: the self-cleavage amounted to 0.816. To C58G C66U belongs 1.01; to C36A G50U, 0.0923; to G1A C7G, 0.0405.

For A70C U79A, the self-cleavage turned out to be 0.72.

On to A8G U72A, for which the self-cleavage amounted to 0.554. C26A C32A: the self-cleavage came out at 0.216. For C22U A43C, the self-cleavage was found to be 0.0282. Next, G25A C30A: 0.126; C36U C61U: 0.726; C13A A70U: 0.0405. With G28C G53U, the self-cleavage came out at 0.123. In the case of C14G C21A, the self-cleavage amounted to 0.0504. To C58U G81A belongs 0.584; to G28C G29U, 0; to G1U A83C, 0.259. Take C24A C85G: the self-cleavage came out at 0.69. For the variant C66A G68A, the self-cleavage was determined as 0.805. To G25A C75A belongs 0.166; to A8G U27C, 0.791; to C22U A83U, 0.199. For U69C G82C, the self-cleavage came out at 0.361. Next, C3G C26G: 0.753; G2U U12A: 0.17; G39U U60G: 0.502. Next, C18U C64U: 0.751. Take G17C A78C: the self-cleavage amounted to 0.0755.

Regarding C22A A77U, the self-cleavage was 0.101.

Consider A8U G10A, for which the self-cleavage was 0.684. To G6C C26U belongs 0.646; to U69G G80U, 0.31; to C14A G52A, 0.567. To U12A U20A belongs 0.101; to G2U G54C, 0.0157. Next, C24U G54U: 0.618; U20G A78C: 0.249. Regarding U23A G68C, the self-cleavage was 0.831. To G73U G74A belongs 0.172. Next, C18G G74U: 0.116; C7U U27C: 0.404. With C18G C64A, the self-cleavage was 0. With G54C G55C, the self-cleavage worked out at 0.981.

For the variant C26G A43U, the self-cleavage amounted to 0.584. To A8G G67A belongs 0.755; to U46A C75G, 0.0594. As for G2C C30G, the self-cleavage is 0.0594. To U60A U65C belongs 1.08; to G1C G25U, 0.0665. To G80C A87C belongs 0.237; to C21U G76C, 0.347. Consider C7U C19U, for which the self-cleavage was found to be 0.0519.

U47G C48U: the self-cleavage came to 1.02. C7U C62U: the self-cleavage is 0.831. Next, U23A A51G: 1.01; A78C A87U: 0.199. For C32A G55U, the self-cleavage is 0.219. Next, G31U C84G: 0.138; C3G C14G: 0.268. Turning to A45U U65A, the self-cleavage was found to be 0.618. Next, G17A U47A: 0.554.

Consider G2A C21A, for which the self-cleavage is 0.0158.

Consider G1C U79A, for which the self-cleavage came to 0.237. To U60A A78C belongs 0; to C24G G55U, 0.16. In the case of C48U C75U, the self-cleavage stood at 0.211. A16G G68A: the self-cleavage turned out to be 0.928. To A16C G29A belongs 0.116. Next, U20A U37A: 0.0831; C13A G55U: 0.0707; G39A U79A: 0.162. Consider A16C C41G, for which the self-cleavage came out at 0.104. Next, C32U C75U: 0.315; G68A G80U: 0.251; C36G A56U: 0.111. To U69G G76A belongs 0.855; to G40C G81A, 0.0755.

C22G C62A: the self-cleavage is 0.106. In the case of C21G U23C, the self-cleavage was 0.0615. As to C22G A77U, the self-cleavage came to 0.162. Consider C33G G76A, for which the self-cleavage amounted to 0.185. G50U G68A: the self-cleavage was 0.694. C14A C44G: the self-cleavage worked out at 0.346. Next, U60C G82C: 0.269; U23A G53A: 0.95; G38A U72G: 0.0415. A77U U79A: the self-cleavage worked out at 0.32. G35A C44A: the self-cleavage was 0. Next, C14A U72A: 0.332; G17U G73U: 0.222; C44A A45G: 1.01. Consider C49U U79G, for which the self-cleavage came to 0.688. To C48U G81A belongs 0.308; to C24A U37A, 0.145.

For U37C G54A, the self-cleavage was 1.11.

As to C41G U46A, the self-cleavage is 0.293.

With C41U A43U, the self-cleavage worked out at 0.489. On to U23C A42U, for which the self-cleavage came to 0.415. Next, A8U U60G: 0.89; G2A C57G: 0.158. As for G5A C33U, the self-cleavage turned out to be 0.831. In the case of A43U G81U, the self-cleavage is 0.16. For the variant C18U C24G, the self-cleavage worked out at 0.0665. On to C19G A71G, for which the self-cleavage was 0.158. To G17U G40A belongs 0.246; to C4G A42G, 0. G6C C63G: the self-cleavage was 0.246. On to C36G C41G, for which the self-cleavage was determined as 0.151. Take C21G G38U: the self-cleavage came out at 0.0702. To G6A C49A belongs 0.566.
